Data reported in the DeepSol protein solubility set.

test: soluble on expression in E. coli; label from the status in PepcDB or PDB records

Soluble on expression in E. coli, soluble:
MFSIQIPALHGKYLREVLESIREQTFQDYEVVVVNSGGGVISDIVHEYGFKEVRKDVKLLEARYLANKESRGDYAFLLDETRPLRKDALEILSKNLHDMVIIGERELGDSFWSRAAQLDKENIMECNSPEAVRGFALPRLFKRELLTASLEKLRENLREKFSQVVFPDHELIYYEASGFSNDIFVIKDELVYHYGDFTLKEIVRKYYRYGKSLKVLKDTPYSFMTSVSRKRREICVGGIKGRLTLYILYLARGIPFLFGKFSLLEHHHHHH
EKKYIVGFKQTMSAMSSAKKKDVISQKGGKVEKQFKYVNAAAATLDEKAVKELKKDPSVAYVEEDHIAHEY
MERIETIPTDKEHLSQDEVIRLASTPCSAPALKRAFLFSCLTALRKSDIKKLTWEEIQPYGSDGVMYVTTRMQKTKDIVHNPISEEALELIGYSPDKRGKVFPDFKDSMTQAPLKNWLKDAGITKHISYHCSRHSFACLQLDAGTSIAVVQRYLGHKNVATTEVYAKISDAQKRASVGLEHHHHHH
AMDIRQVTETIAMIEEQNFDIRTITMGISLLDCIDPDINRAAEKIYQKITTKAANLVAVGDEIAAELGIPIVNKRVSVTPISLIGAATDATDYVVLAKALDKAAKEIGVDFIGGFSALVQKGYQKGDEILINSIPRALAETDKVCSSVNIGSTKSGINMTAVADMGRIIKETANLSDMGVAKLVVFANAVEDNPFMAGAFHGVGEADVIINVGVSGPGVVKRALEKVRGQSFDVVAETVKKTAFKITRIGQLVGQMASERLGVEFGIVDLSLAPTPAVGDSVARVLEEMGLETVGTHGTTAALALLNDQVKKGGVMACNQVGGLSGAFIPVSEDEGMIAAVQNGSLNLEKLEAMTAICSVGLDMIAIPEDTPAETIAAMIADEAAIGVINMKTTAVRIIPKGKEGDMIEFGGLLGTAPVMKVNGASSVDFISRGGQIPAPIHSFKN
MKKKQVMLALTAAAGLGLTALHSAPAAKAAPLHDISVSMPSSDTYIIKAGKLNVRTEPNHEGDILGTVSSEQKVKVDRFVNADWAQIHFKGKKAYISTHFLMKTASQAKTTKQTAFYTPTPENGKAKQLSSGTEVTILGWGFSENGGFDFTWAFVDYGGVKGYIHTKDLQMRLEHHHHHH

Soluble on expression in E. coli, not soluble:
MSLGINRIDHAAVQVGDLGKALAWYEDVLGLTVLSRDDTTVHLACRGEAADITLVKGRQSLENFAFGVDDQEDLDRVESILKQEGVASERLNGDSRPGEGATLKFHLPSGHELRLCTGGAERRAGISDFDARGSHVPCDMDHINLLGAVDPSVMRDFLMMIGFKSSLNISVGGQLAGVWLRGSAYDHDIAYMRAVRPGDRLHHVAFAVEDGNHYFRLSDRLMDTGHRWEFGPGRHNGGLGKSTGFGTNNYAYAFDPFGNRNEFSSGMEQFSDDTPPLDCHIAPEQLTEVMNGWGYEMAETFMTVGSEGHHHHHH
MNIKFKPVEPADRSAITTITFSSVARICDLAFSNLYCWSFVYGTSWAIVEGCLIIRFKPKSRSHPVYLFPVGADPEQVVAAAHRLKAEVVHEDYPLIFMGVTPDIHRCIEEHCSAEYYFIEDEAYCDYIYERESLATLSGKKLQAKRNHINKFVSLYPDYTYDPVKDSDAEECLMLAHLWLDSRGDQDGRELEVEMVERAFRHRQELGLSGGVLRVGGRVVAFCLGSPINTDTFGVHIEKADAMVEGAFAMINREFARSIPDTFRYINREEDLGLPGLRQAKLSYRPAILLPKQTAILRRDHDRIQA
MPSSTTVPTRRGLVSGPSSSDAHGDMPAVSVIMNCLNCERDLAEAIGSVFAQTFDDWEIVFWDNGSTDRSAEIAQGFGERVRYFRATETVPLGAARNLAIAKARGEFIAFLDCDDVWLPEKLERQVALFRANPRVGLVCTDTVMFTGAKDLNRLFEHAHPARGHVFRELMTTQWISMSSAVIRRNALDGMDHWFDESLNVCEEADVFYRIAWDWELDHVDAPLTRWRVHGANTTFRKFGQFAEETLRILDKHRAMYPGYDERYADLVALLRRRAAFQRAVALWREGRGAEARATIAPFDASPKFRLFRLATYLPGALFDPLARLYFALPAFLRRLEHHHHHH
MIGFIGSVFSPWYRWSGRKEPQNHCCLNVATYGPGGRFTMTDRGRAALRQSPDTLTVGPSRMHWTGTQLIVEVNEISSPPLVSPVKGRIVLTPTGITDVEVTLKDDGSHIWRPFAPTARIEVDLTQGHRWHGHGYFDANFGTAALEADFRFWTWGRYPVADGAACFYDATRRDGSRLELGLHVAADGRARLIQPPPEARFARSRWLVERHTPADPGTRPRQVMSMLDAPFYSRAMVETTVFGQKTVGVHEALDLRRFRSPLLMPMLAVRVPRRPGWSF
